Data taken from patent US20240025959A1 (UNIVERSITY OF SOUTHERN CALIFORNIA, published 2024).
Each block holds one binder with its values, some of them ahead of it.

B1: ATG9A (mouse, endogenous in BMDMs) (other, UniProt Q68FE2 2-839, looked up)
chain: AQFDTEYQRLEASYSDSPPGEEDLLVHVAEGSKSPWHHIENLDLFFSRVYNLHQKNGFTCMLIGEMFELMQFLFVVAFTTFLVSCVDYDILFANKMVNHSLHPTEPVKVTLPDAFLPAQVCSARIQENGSLITILVIAGVFWIHRLIKFIYNICCYWEIHSFYLHALRIPMSALPYCTWQEVQARIVQTQKEHQICIHKRELTELDIYHRILRFQNYMVALVNKSLLPLRFRLPGLGEVVFFTRGLKYNFELILFWGPGSLFLNEWSLKAEYKRGGQRLELAQRLSNRILWIGIANFLLCPLILIWQILYAFFSYAEVLKREPGALGARCWSLYGRCYLRHFNELEHELQSRLNRGYKPASKYMNCFLSPLLTLLAKNGAFFAGSILAVLIALTIYDEDVLAVEHVLTTVTLLGVTVTVCRSFIPDQHMVFCPEQLLRVILAHIHYMPDHWQGNAHRSQTRDEFAQLFQYKAVFILEELLSPIVTPLILIFCLRPRALEIIDFFRNFTVEVVGVGDTCSFAQMDVRQHGHPQWLSGGQTEASVYQQAEDGKTELSLMHFAITNPGWQPPRESTAFLGFLKEQVQRDGAAAGLAQGGLLPENALFTSIQSLQSESEPLSLIANVVAGSSCRGPSLSRDLQGSRHRADVASALRSFSPLQPGAAPQGRVPSTMTGSGVDARTASSGSSVWEGQLQSLVLSEYASTEMSLHALYMHQLHKQQTQAEPERHVWHRRESDESGESAPEEGGEGARAPQPIPRSASYPCATPRPGAPETTALHGGFQRRYGGITDPGTVPRGPSHFSRLPLGGWAEDGQPASRHPEPVPEEGSEDELPPQVHKV
notes: Endogenous protein in mouse BMDM lysates

How the values were obtained:
[1] = molecular target: NLRP3 (mouse, endogenous in BMDMs) (mouse, UniProt Q8R4B8 1-1033); assay: endogenous co-IP; WT and Becn2 KO BMDM lysates (untreated or LPS 3 h) immunoprecipitated with ATG9A antibodies, immunoblot (FIG. 30F)
Chain of NLRP3 (mouse, endogenous in BMDMs) (Q8R4B8 whole entry): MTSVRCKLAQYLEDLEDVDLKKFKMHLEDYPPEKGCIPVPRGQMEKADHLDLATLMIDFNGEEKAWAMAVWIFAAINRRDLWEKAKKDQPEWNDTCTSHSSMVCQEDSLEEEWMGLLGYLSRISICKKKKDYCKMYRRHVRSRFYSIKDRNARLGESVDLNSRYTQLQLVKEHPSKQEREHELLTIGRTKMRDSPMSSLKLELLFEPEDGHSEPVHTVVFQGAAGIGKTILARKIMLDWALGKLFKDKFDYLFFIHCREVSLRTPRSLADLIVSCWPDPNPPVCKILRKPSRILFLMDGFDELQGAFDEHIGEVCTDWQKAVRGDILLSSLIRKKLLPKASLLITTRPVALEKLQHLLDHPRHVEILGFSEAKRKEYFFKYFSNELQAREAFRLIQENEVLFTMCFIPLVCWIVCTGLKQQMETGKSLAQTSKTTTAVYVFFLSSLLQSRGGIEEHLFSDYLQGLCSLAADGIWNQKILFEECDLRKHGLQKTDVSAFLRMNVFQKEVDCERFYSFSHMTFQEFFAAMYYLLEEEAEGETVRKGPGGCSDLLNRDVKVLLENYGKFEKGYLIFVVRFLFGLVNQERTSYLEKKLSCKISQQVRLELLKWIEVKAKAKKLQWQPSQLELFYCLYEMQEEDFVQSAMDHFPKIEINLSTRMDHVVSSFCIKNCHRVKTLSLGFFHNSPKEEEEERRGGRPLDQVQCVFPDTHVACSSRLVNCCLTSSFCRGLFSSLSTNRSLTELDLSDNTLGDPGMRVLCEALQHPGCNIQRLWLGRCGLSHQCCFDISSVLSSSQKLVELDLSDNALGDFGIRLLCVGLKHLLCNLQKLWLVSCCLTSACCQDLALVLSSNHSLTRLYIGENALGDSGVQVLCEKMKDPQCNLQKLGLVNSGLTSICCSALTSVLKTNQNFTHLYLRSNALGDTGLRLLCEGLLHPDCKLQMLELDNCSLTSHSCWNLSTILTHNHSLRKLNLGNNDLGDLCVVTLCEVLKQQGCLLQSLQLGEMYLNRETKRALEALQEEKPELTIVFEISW

[2] = molecular target: T1, Beclin 2 (human, full length) (human, UniProt A8MW95 1-431); assay: co-IP with anti-Flag beads and immunoblot; 293T cells co-transfected with Flag-Beclin 2 and an HA-tagged plasmid (FIG. 8A)
T1 construct: All tagged and endogenous human forms are kept under this one id; the form used is named under assay; also called BECN2; Flag-Beclin 2
T1 sequence: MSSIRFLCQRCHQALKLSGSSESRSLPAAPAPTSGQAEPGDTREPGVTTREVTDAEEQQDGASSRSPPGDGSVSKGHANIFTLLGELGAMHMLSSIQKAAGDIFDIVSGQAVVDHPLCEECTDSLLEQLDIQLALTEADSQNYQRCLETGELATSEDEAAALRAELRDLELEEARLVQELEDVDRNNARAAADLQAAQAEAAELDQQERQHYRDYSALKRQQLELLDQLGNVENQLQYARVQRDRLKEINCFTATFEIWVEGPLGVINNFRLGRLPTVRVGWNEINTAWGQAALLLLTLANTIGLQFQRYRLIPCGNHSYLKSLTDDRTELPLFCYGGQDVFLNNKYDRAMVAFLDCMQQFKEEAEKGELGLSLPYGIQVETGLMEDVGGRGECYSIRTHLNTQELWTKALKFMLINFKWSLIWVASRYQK
Protocol: The secondary antibody (Veriblot for IP detection reagent HRP) that only recognized native IgG but not denatured IgG was applied for immunoblotting of proteins in immunoprecipitates. For immunoprecipitation of Flag-tagged proteins, cell lysates were incubated with anti-Flag beads (Sigma) at 4° C. overnight. The beads were washed four times with RIPA lysis buffer, and immunoprecipitates were eluted with 2×SDS loading buffer. Immunoblotting was performed by loading the samples on SDS-PAGE gels, conducting electrophoresis, transferring the samples to PVDF membranes (Bio-Rad), and then incubating the membranes with the indicated antibodies. For all immunoblots, the LumiGLO Chemiluminescent Substrate System from KPL (Gaithersburg, MD) was used for protein detection.

[3] = molecular target: B1; assay: endogenous co-IP; WT and Becn2 KO BMDM lysates (untreated or LPS 3 h) immunoprecipitated with ATG9A antibodies, immunoblot (FIG. 30F)
[4] = molecular target: T2, ATG9A (human) (human, UniProt Q7Z3C6 1-839); assay: endogenous co-IP; WT and BECN2 KO THP-1 cell lysates immunoprecipitated with ATG9A antibodies, immunoblot (FIG. 32D)
T2 construct: Transmembrane protein; co-IP from RIPA lysates; Tagged and endogenous human forms kept under one id; also called Flag-ATG9A; HA-ATG9A
T2 sequence (looked up): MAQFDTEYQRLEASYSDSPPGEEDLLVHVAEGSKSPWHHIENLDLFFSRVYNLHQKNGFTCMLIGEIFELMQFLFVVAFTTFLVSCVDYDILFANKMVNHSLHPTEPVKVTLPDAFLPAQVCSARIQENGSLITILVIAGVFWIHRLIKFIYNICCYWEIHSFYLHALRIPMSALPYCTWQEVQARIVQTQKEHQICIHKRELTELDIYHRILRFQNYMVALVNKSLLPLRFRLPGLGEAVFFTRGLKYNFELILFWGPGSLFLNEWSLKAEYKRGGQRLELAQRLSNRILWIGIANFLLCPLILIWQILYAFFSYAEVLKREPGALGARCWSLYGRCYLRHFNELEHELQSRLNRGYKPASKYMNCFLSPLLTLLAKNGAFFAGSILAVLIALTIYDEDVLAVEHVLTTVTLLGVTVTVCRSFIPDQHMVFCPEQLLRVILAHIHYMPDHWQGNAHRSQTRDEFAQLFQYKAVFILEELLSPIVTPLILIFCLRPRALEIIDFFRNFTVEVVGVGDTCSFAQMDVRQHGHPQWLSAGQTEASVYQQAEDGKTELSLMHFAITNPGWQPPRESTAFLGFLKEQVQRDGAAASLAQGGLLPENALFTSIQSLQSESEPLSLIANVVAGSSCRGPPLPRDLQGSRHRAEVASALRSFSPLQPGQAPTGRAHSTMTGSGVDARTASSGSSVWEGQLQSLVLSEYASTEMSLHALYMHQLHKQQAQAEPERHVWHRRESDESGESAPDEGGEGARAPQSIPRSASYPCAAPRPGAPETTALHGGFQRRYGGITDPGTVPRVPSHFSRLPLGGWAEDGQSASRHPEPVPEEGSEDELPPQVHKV
Protocol: (§1) Whole cell lysates obtained 24 h post-transfection or via ligand stimulation were obtained using RIPA lysis buffer and shook on ice for 15 min. The HEK293T cell lysates were immunoprecipitated with anti-Flag conjugated beads (BioLegend) at 4° C. overnight. […] The beads were washed five times with RIPA lysis buffer, and immunoprecipitates were eluted with 2×SDS loading buffer and subjected to SDS-PAGE gel electrophoresis, followed by immunoblotting. The secondary antibody (Veriblot for IP detection, HRP-conjugated) that only recognized native IgG but not denatured IgG was applied for immunoblotting of endogenous proteins in immunoprecipitates.

[5] = molecular target: T1, Beclin 2 (human, full length); assay: co-IP with anti-Flag beads and immunoblot; HEK293T cells co-transfected with HA-Beclin 2 and Flag-tagged SNARE or RAB proteins (FIG. 32A)
Protocol: as §1

Binder: B1
- binding result [1]: binds

B3: AIM2 (mouse, endogenous in BMDMs) (other, UniProt Q91VJ1 1-354, looked up)
chain: MESEYREMLLLTGLDHITEEELKRFKYFALTEFQIARSTLDVADRTELADHLIQSAGAASAVTKAINIFQKLNYMHIANALEEKKKEAERKLMTNTKKRGTQKVENRSQAENCSAASATRSDNDFKEQAATEVCPQAKPQKKQMVAEQEAIREDLQKDPLVVTVLKAINPFECETQEGRQEIFHATVATETDFFFVKVLNAQFKDKFIPKRTIKISNYLWHSNFMEVTSSSVVVDVESNHEVPNNVVKRARETPRISKLKIQPCGTIVNGLFKVQKITEEKDRVLYGIHDKTGTMEVLVLGNPSKTKCEEGDKIRLTFFEVSKNGVKIQLKSGPCSFFKVIKAAKPKTDMKSVE
- binding result [3]: binds

Now from value to binder:

- binding result [2]: no binding
B2: ERK1 (enzyme, UniProt P27361 1-379, looked up)
chain: MAAAAAQGGGGGEPRRTEGVGPGVPGEVEMVKGQPFDVGPRYTQLQYIGEGAYGMVSSAYDHVRKTRVAIKKISPFEHQTYCQRTLREIQILLRFRHENVIGIRDILRASTLEAMRDVYIVQDLMETDLYKLLKSQQLSNDHICYFLYQILRGLKYIHSANVLHRDLKPSNLLINTTCDLKICDFGLARIADPEHDHTGFLTEYVATRWYRAPEIMLNSKGYTKSIDIWSVGCILAEMLSNRPIFPGKHYLDQLNHILGILGSPSQEDLNCIINMKARNYLQSLPSKTKVAWAKLFPKSDSKALDLLDRMLTFNPNKRITVEEALAHPYLEQYYDPTDEPVAEEPFTFAMELDDLPKERLKELIFQETARFQPGVLEAP
notes: also called Mapk3

- binding result [4]: binds
- binding result [5]: binds
B4: SEC22A (other, human, UniProt Q96IW7 1-307, looked up)
chain: MSMILSASVIRVRDGLPLSASTDYEQSTGMQECRKYFKMLSRKLAQLPDRCTLKTGHYNINFISSLGVSYMMLCTENYPNVLAFSFLDELQKEFITTYNMMKTNTAVRPYCFIEFDNFIQRTKQRYNNPRSLSTKINLSDMQTEIKLRPPYQISMCELGSANGVTSAFSVDCKGAGKISSAHQRLEPATLSGIVGFILSLLCGALNLIRGFHAIESLLQSDGDDFNYIIAFFLGTAACLYQCYLLVYYTGWRNVKSFLTFGLICLCNMYLYELRNLWQLFFHVTVGAFVTLQIWLRQAQGKAPDYDV
